The target in the assay is GRIP (full length, 1112 amino acids, 130 kDa protein) (rat).
“myc-tagged GluR1C (C-terminal 50 amino acids of the GluR1 subunit, transfected into neurons) (receptor)”: the GluR1 Clusters (synaptic AMPA receptor clusters in transfected spinal cord neurons) (GluR1 Clusters) was determined as 3.6.

“myc-tagged GluR2C (C-terminal 50 amino acids of the GluR2 subunit, transfected into neurons) (from UniProt P19491) (receptor)” registered a GluR1 Clusters (synaptic AMPA receptor clusters in transfected spinal cord neurons) (GluR1 Clusters) of 1.2.

Take “myc-tagged GluR2C Δ7 (GluR2 C-terminus lacking the last 7 amino acids, transfected into neurons) (from UniProt P19491) (receptor)”: the GluR1 Clusters (synaptic AMPA receptor clusters in transfected spinal cord neurons) (GluR1 Clusters) worked out at 2.9.

For the origin of these results see US6001575.
